Data as given in US20230210943A1 (PEMI31 THERAPEUTICS, published 2023).

How the values were obtained:
[1] = molecular target: scavenger receptor CD-36 pulled down from macrophage membrane extracts or lysates (UniProt P16671 2-472); assay: plate binding assay on CD-36 pulled down from macrophage membrane extracts
[2] = molecular target: T1, scavenger receptor SR-AI pulled down from macrophage membrane extracts or lysates (UniProt P21757 1-451); assay: plate binding assay on SR-AI pulled down from macrophage membrane extracts
T1 construct: also called SR-A1
T1 sequence (looked up): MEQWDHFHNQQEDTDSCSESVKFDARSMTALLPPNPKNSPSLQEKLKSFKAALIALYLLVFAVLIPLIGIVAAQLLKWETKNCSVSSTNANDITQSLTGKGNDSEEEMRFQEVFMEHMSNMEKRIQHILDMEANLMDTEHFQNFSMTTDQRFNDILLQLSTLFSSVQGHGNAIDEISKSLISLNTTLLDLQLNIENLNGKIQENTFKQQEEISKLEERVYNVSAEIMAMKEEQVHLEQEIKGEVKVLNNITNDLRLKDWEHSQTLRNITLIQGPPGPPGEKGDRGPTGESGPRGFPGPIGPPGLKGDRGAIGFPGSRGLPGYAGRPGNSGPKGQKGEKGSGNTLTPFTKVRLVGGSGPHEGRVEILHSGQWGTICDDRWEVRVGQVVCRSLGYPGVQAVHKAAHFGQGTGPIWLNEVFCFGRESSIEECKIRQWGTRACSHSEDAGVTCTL

Sequence of scavenger receptor CD-36 pulled down from macrophage membrane extracts or lysates (P16671 2-472 limits assumed): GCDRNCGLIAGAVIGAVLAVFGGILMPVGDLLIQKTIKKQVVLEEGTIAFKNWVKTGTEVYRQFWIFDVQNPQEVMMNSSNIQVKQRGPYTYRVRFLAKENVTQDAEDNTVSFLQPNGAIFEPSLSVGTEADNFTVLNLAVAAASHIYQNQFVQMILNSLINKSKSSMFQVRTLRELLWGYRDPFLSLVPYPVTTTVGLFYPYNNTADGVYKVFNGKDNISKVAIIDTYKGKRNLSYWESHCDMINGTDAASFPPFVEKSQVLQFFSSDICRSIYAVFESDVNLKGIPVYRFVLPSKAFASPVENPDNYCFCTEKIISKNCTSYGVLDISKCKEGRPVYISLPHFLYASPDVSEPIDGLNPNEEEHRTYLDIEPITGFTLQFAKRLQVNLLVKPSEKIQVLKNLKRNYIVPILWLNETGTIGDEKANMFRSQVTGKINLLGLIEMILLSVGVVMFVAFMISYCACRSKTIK

- binding result [1]: no binding
- binding result [2]: no binding
B1: HIS-tagged HSP27 polypeptide fragment rC1 (other)
chain: MHHHHHHHHDDDDKGGDRWRVSLDVNHFAPDELTVKTKDGVVEITGKHEERQDEHGYISRCFTRKYTLPPGVDPTQVSSSLSPEGTLTVEAPMPKLSTQSNEITIPVTFESRAQLGGPEAAKSDETAAK
notes: also called HSP27 rC1; HSP27 fragment rC1
